In the supplement of paper PMC10126150:
± gives the standard deviation of the averaged measurements.

Tested on: ATP
Assay: switch fluorescence ratio, 500 uM ATP over buffer (Cy3 cluster intensity, sum of 5 cycles each) (fold (ratio)); higher = stronger signal-on switching upon ATP binding; sequences stand for … in TCGTCGGCAGCGTCAGATGTGTATAAGAGACAGTTTTTTTTTTTTTTTTTTTTTTTTT…TC
Conditions: aptamer strand: ATP DNA aptamer (quencher-CACCTGGGGGAGTATTGCGGAGGAAGG + anchor), 100 nM annealed; ATP concentration: 500 uM
How it was run: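 After annealing to 100 nM quencher-labelled ATP aptamer, Cy3-labelled switching-strand clusters on a modified Illumina MiSeq flow-cell were imaged in selection buffer. A second image followed after 15 min with 500 uM ATP at 22 °C, and five such buffer/ATP cycles were done, each separated by NaOH stripping and re-annealing. The fluorescence ratio, averaged per switch-domain sequence, is summed target-cycle over summed buffer-cycle Cy3 intensity per cluster, with clusters outside 100-1000 RFU excluded.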
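Also: ATP exposure 15 min at 22 °C before imaging.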

Sequence | switch fluorescence ratio
AAGGGGGTAA | 0.977 ± 0.012
AAGGGGTCTT | 0.981 ± 0.027
AAGGGGTTCA | 0.991 ± 0.03
AAGGGTAGAT | 1.01 ± 0.038
AAGGGTAGGA | 1 ± 0.013
AAGGGTAGGC | 1.03 ± 0.042
AAGGGTAGTT | 0.997 ± 0.028
AAGGGTATGT | 0.981 ± 0.029
AAGGGTCCAC | 0.9907 ± 0.0079
AAGGGTGAC | 1.01 ± 0.032
AAGGGTGCGA | 1.02 ± 0.04
AAGGGTGCTA | 0.9787 ± 0.0016
AAGGGTGTCA | 1.022 ± 0.0032
AAGGGTTAGA | 0.9864 ± 0.0021
AAGGGTTTGC | 0.974 ± 0.022
AAGGGTTTTT | 0.994 ± 0.025
AAGGTACTAC | 1.03 ± 0.065
AAGGTAGAGC | 1.03 ± 0.034
AAGGTAGCAC | 1.03 ± 0.011
AAGGTAGCGC | 0.974 ± 0.059
AAGGTAGGGT | 1.025 ± 0.0034
AAGGTAGTGT | 0.989 ± 0.028
AAGGTATGGG | 1.06 ± 0.073
AAGGTCATAA | 1.01 ± 0.053
AAGGTCCGCG | 1.08 ± 0.027
AAGGTCGCGT | 0.9906 ± 0.0039

Sequence | switch fluorescence ratio
AAGGTCTTTA | 1 ± 0.035
AAGGTGGGGA | 1.02 ± 0.034
AAGGTGGTTG | 0.969 ± 0.016
AAGGTTCGGG | 0.994 ± 0.018
AAGGTTGTTG | 1 ± 0.012
AAGGTTTTTT | 1.01 ± 0.02
AAGTACCTAT | 1.27 ± 0.058
AAGTACTTGG | 1.17 ± 0.017
AAGTAGATCC | 1.04 ± 0.044
AAGTAGATGG | 0.991 ± 0.029
AAGTAGCCGT | 1.19 ± 0.19
AAGTAGTGGG | 0.96 ± 0.028
AAGTATATGG | 1.03 ± 0.029
AAGTATATGT | 0.998 ± 0.027
AAGTATATTG | 0.991 ± 0.025
AAGTATCGAC | 1.05 ± 0.023
AAGTATTATT | 0.983 ± 0.03
AAGTATTTCG | 0.9995 ± 0.0062
AAGTCAGCTG | 0.9826 ± 0.004
AAGTCGAGTC | 0.996 ± 0.018
AAGTCGCTGT | 1.02 ± 0.016
AAGTCGGGGG | 1 ± 0.029
AAGTCGGTGG | 0.987 ± 0.07
AAGTCGGTGT | 0.988 ± 0.027
AAGTCTAAGG | 0.964 ± 0.05
AAGTCTGCCA | 1.47 ± 0.66

Sequence | switch fluorescence ratio
AAGTGAGGCA | 0.963 ± 0.06
AAGTGAGGGT | 0.996 ± 0.036
AAGTGATGGG | 0.988 ± 0.045
AAGTGATTTG | 1.01 ± 0.018
AAGTGCGGGA | 0.9967 ± 0.0086
AAGTGCTTTT | 1.01 ± 0.052
AAGTGGCCGT | 1.01 ± 0.041
AAGTGGGTTC | 0.9824 ± 0.0052
AAGTGGTCAC | 1.01 ± 0.029
AAGTGGTGCA | 0.974 ± 0.013
AAGTGGTGCT | 1.024 ± 0.0011
AAGTGTAGAG | 1.027 ± 0.0092
AAGTGTATGC | 1.01 ± 0.038
AAGTGTATGG | 0.997 ± 0.0098
AAGTGTTCAG | 0.982 ± 0.027
AAGTTAATTT | 0.998 ± 0.021
AAGTTACTAC | 1.06 ± 0.027
AAGTTAGGGA | 0.919 ± 0.083
AAGTTATGCT | 1 ± 0.014
AAGTTCACAA | 1.01 ± 0.033
AAGTTCACCA | 1.02 ± 0.018
AAGTTCTATA | 1.01 ± 0.043
AAGTTGATAA | 1 ± 0.035
AAGTTGATTC | 0.979 ± 0.016
AAGTTGCTTG | 0.989 ± 0.02
AAGTTGGAGT | 1.02 ± 0.027

Sequence | switch fluorescence ratio
AAGTTGGATA | 0.993 ± 0.019
AAGTTGGGCT | 1.01 ± 0.025
AAGTTGGGGG | 1.01 ± 0.025
AAGTTGTGGG | 0.967 ± 0.043
AAGTTGTGTT | 0.996 ± 0.033
AAGTTTACGC | 0.983 ± 0.025
AAGTTTATAG | 1.03 ± 0.0066
AAGTTTGAGT | 0.982 ± 0.022
AAGTTTGATA | 0.981 ± 0.058
AAGTTTGTTA | 0.995 ± 0.042
AAGTTTTATG | 1.03 ± 0.059
AAGTTTTGCA | 1.007 ± 0.0091
AATAAACAGC | 1.006 ± 0.0078
AATAAAGGTT | 1.1 ± 0.18
AATAACTAGA | 0.9804 ± 0.0037
AATAACTAGG | 1 ± 0.025
AATAAGAGAG | 1.001 ± 0.0078
AATAAGGATA | 1.01 ± 0.026
AATAAGGTA | 0.995 ± 0.022
AATAAGGTTG | 0.982 ± 0.04
AATAAGTGGT | 0.989 ± 0.023
AATAAGTTGT | 0.999 ± 0.035
AATAATAGCC | 1.01 ± 0.042
AATAATCGCC | 1 ± 0.05
AATAATCGGT | 0.975 ± 0.035
AATAATGCGG | 0.9969 ± 0.0071

Sequence | switch fluorescence ratio
AATAATTTGG | 0.978 ± 0.012
AATACCATTT | 1.01 ± 0.035
AATACGGGAC | 1.303 ± 0.0093
AATACTGAGC | 1.04 ± 0.053
AATACTTGGG | 0.966 ± 0.01
AATAGAGGTC | 0.988 ± 0.013
AATAGATTCG | 0.982 ± 0.017
AATAGCTCGG | 0.9867 ± 0.0047
AATAGGATCG | 1.01 ± 0.045
AATAGGCTGG | 1.03 ± 0.013
AATAGGGACC | 1.07 ± 0.089
AATAGGGAGC | 0.997 ± 0.041
AATAGGGATT | 0.984 ± 0.019
AATAGGTGTT | 1.07 ± 0.015
AATAGGTTTT | 1.02 ± 0.011
AATAGTTGGA | 0.9846 ± 0.0064
AATAGTTGGG | 1.03 ± 0.015
AATATAAAGC | 1.012 ± 0.0028
AATATATGCA | 0.991 ± 0.034
AATATCAGGA | 1.026 ± 0.0083
AATATGATTC | 0.992 ± 0.025
AATATGCTTT | 1.006 ± 0.0048
AATATGGAGC | 1.08 ± 0.14
AATATGGGT | 1 ± 0.034
AATATGGTTT | 0.966 ± 0.02
AATATGTGGG | 0.975 ± 0.024

Sequence | switch fluorescence ratio
AATATGTTCT | 1.02 ± 0.014
AATATTACAT | 1.03 ± 0.034
AATATTACTA | 1.007 ± 0.0041
AATATTCGTT | 0.997 ± 0.039
AATATTGAAG | 1 ± 0.018
AATATTGGTA | 1.01 ± 0.018
AATCAAAAAT | 0.949 ± 0.043
AATCAAATTA | 0.985 ± 0.025
AATCAATTAA | 1.001 ± 0.0016
AATCAATTTT | 1.007 ± 0.0054
AATCAGTCTG | 0.992 ± 0.013
AATCATAGGG | 1.011 ± 0.0087
AATCATATTA | 1.01 ± 0.049
AATCATGGGG | 0.993 ± 0.041
AATCCATGCG | 1.004 ± 0.0076
AATCCATGGC | 0.98678 ± 6.8e-05
AATCCCGGGG | 1.19 ± 0.21
AATCCGTTTT | 1.04 ± 0.044
AATCCTTAAT | 1.007 ± 0.0051
AATCCTTTTT | 1.004 ± 0.0084
AATCGCACCA | 1.11 ± 0.025
AATCGCTAGC | 1.02 ± 0.011
AATCGCTCTT | 1.007 ± 0.0062
